Measurements as given in patent publication US20060234343A1 (published 2006).

Molecular target: T1, EGFR501Fcflag (ErbB1501.Fc fusion protein homodimer) (human, UniProt P00533 25-525)
T1 construct: Captured from 293T supernatant on protein G coated wells; also called truncated form of the extracellular domain of the EGF receptor, expressed as an Fc fusion homodimer; not shown: spacer peptide N-terminal of the Fc; human IgG1 Fc region (from a genomic fragment)
Assay: Eu-EGF displacement by unlabelled EGF from the Fc fusion homodimer captured on protein G; the reference value is from the literature
Protocol: Ligand binding assays. The wells of a 96-well Lumitrac 600 plate (Greiner) were coated with protein G (2 ug/ml in 10 mM sodium citrate buffer, pH 9.6; Sigma). […] After incubation at room temperature, wells were aspirated, washed in TBS plus 0.05% Tween-20, and Enhancement Solution (Perkin-Elmer) added to each well for 20 minutes.

- fold higher affinity than that reported for the full-length ErbB1 ectodomain-Fc fusion protein: 10 fold
B1: EGF (species not stated) (ligand)
chain: NSYPGCPSSYDGYCLNGGVCMHIESLDSYTCNCVIGYSGDRCQTRDLRWWELR
modifications: In the FIG. 8 assay the trace is EGF mono-labelled with a europium chelate (Wallac); site not stated. The EGF in the ultracentrifuge is unlabelled.
notes: Kept apart from hEGF and mEGF because these experiments say only EGF; the two experiments may have used different EGF; also called unlabelled EGF; Eu-EGF (Wallac)
